Measured values reported in patent US20120020912A1 (WISCONSIN ALUMNI RESEARCH FOUNDATION, published 2012).
Values belong to the binder of their own block, whether it stands above or below them.

Biological target: T1, HLA-A2 on T2 cells (human)
T1 construct: whole, on cells; MHC class I molecule on T2 cells
Assay: T2 binding assay: T2 cells pulsed with 50 ug/mL peptide overnight, surface HLA-A2 by flow cytometry (BB7.2)

In Vitro HLA-A2 Expression (Relative Mean Flourescent Intensity): 1.01 ratio to unloaded T2 cells
Binder: FSIIPVDGL (Synthetic 9-mer derived from the AR LBD) [AR814 peptide]

In Vitro HLA-A2 Expression (Relative Mean Flourescent Intensity): 2.15 ratio to unloaded T2 cells
Binder: RMLYFAPDLV (Synthetic 10-mer) [AR761 peptide]

In Vitro HLA-A2 Expression (Relative Mean Flourescent Intensity): 2.19 ratio to unloaded T2 cells
Binder: FLCMKALLL (Synthetic 9-mer) [AR805 peptide]

In Vitro HLA-A2 Expression (Relative Mean Flourescent Intensity): 2.54 ratio to unloaded T2 cells
Binder: LLLFSIIPV (Synthetic 9-mer) [AR811 peptide]

In Vitro HLA-A2 Expression (Relative Mean Flourescent Intensity): 1.33 ratio to unloaded T2 cells
Binder: QLTKLLDSV (Synthetic 9-mer) [AR859 peptide]

In Vitro HLA-A2 Expression (Relative Mean Flourescent Intensity): 1.65 ratio to unloaded T2 cells
Binder: KLLDSVQPI (Synthetic 9-mer derived from the AR LBD) [AR862 peptide]

The remaining lines, values behind:

Binder: VLEAIEPGV (Synthetic 9-mer derived from the AR LBD) [AR677 peptide]
In Vitro HLA-A2 Expression (Relative Mean Flourescent Intensity): 1.37 ratio to unloaded T2 cells

Binder: WMGLMVFAM (Synthetic 9-mer derived from the AR LBD) [AR742 peptide]
In Vitro HLA-A2 Expression (Relative Mean Flourescent Intensity): 1.32 ratio to unloaded T2 cells

B1: AR708 peptide (peptide)
peptide: LGERQLVHVV
notes: Synthetic 10-mer derived from the AR LBD
In Vitro HLA-A2 Expression (Relative Mean Flourescent Intensity): 1.16 ratio to unloaded T2 cells

Binder: ALLSSLNEL (Synthetic 9-mer derived from the AR LBD) [AR700 peptide]
In Vitro HLA-A2 Expression (Relative Mean Flourescent Intensity): 2.66 ratio to unloaded T2 cells
